Data taken from US20160311886A1, “Constructs Binding to Phosphatidylserine and Their Use in Disease Treatment and Imaging” (Board of Regents, The University of Texas System, priority 2005, published 2016).
Entries after “also recorded” stand apart in the source; their conditions may differ. Where two headings read alike, the source gives them in different places.

Experiments:
[1] = Reactivity of 9D2 and annexin V with plastic-immobilized phospholipids (panel); format: binding
Procedure: (§1) Phospholipids were dissolved in n-hexane to a concentration of 50 μg/ml. 100 μl of this solution was added to wells of 96-well microtiter plates. After evaporation of the solvent in air, the plates were blocked for 2 h with 10% fetal bovine serum diluted in DPBS containing 2 mM Ca^2+ (binding buffer).
(§2) 9D2 antibody or annexin V were diluted in the binding buffer in the presence of 10% serum at an initial concentration of 6.7 nM. Serial two-fold dilutions were prepared in the plates (100 μl per well). The plates were then incubated for 2 h at room temperature. The plates were washed and the 9D2 and annexin V were detected by goat anti-rat IgM conjugated to HRP and rabbit anti-human annexin V followed by goat anti-rabbit IgG conjugated to HRP (all diluted 1:1000), respectively. Secondary reagents were detected by using chromogenic substrate OPD followed by reading plates at 490 nm using a microplate reader (Molecular Devices, Palo Alto, Calif.).
(§3) The specificity of the 9D2 antibody binding was validated by using control rat IgM of irrelevant specificity (Pharmingen, San Diego, Calif.). The specificity of annexin V binding to phospholipids, which is Ca^2+-dependent, was determined by diluting the reagent in the DPBS containing 5 mM EDTA. Additional negative controls consisted of washing the plates with the binding buffer containing 0.2% of a detergent Tween 20. This treatment extracts lipids, thus removing the phospholipid that was absorbed to plastic. Neither 9D2 antibody nor annexin V bound to detergent-washed plates.

[2] = Reactivity with plastic-immobilized phospholipid; settings: read-out: EC50 of binding
Procedure: as §1, §2, §3

[3] = 3G4 reactivity with plastic-immobilized phospholipids and liposome competition; format: binding
Procedure: Phospholipids were dissolved in n-hexane to a concentration of 50 μg/ml. 100 μl of this solution was added to wells of 96-well microtiter plates. After evaporation of the solvent in air, the plates were blocked for 2 h with 10% FBS diluted in DPBS containing 2 mM Ca^2+ (binding buffer). […] Serial two-fold dilutions were prepared in the plates (100 μl per well). The plates were then incubated for 2 hr. at room temperature. […] Secondary reagents were detected by using chromogenic substrate OPD followed by reading plates at 490 nm using a microplate reader (Molecular Devices, Palo Alto, Calif.).
Specificity of phospholipid recognition was further confirmed by competition assays with various liposomes. […] The solutions were dried under nitrogen to form a thin layer in a round-bottomed glass flask. 10 ml of Tris buffer (0.1 M, pH 7.4) were then added and the flask was sonicated five times for 2 min. […] The mixture was added to phospholipid-coated plates.
Liposomes were prepared from solutions of 5 mg of a single phospholipid in chloroform. The solutions were dried under nitrogen to form a thin layer in a round-bottomed glass flask. Ten ml of Tris buffer (0.1 M, pH 7.4) were then added and the flask was sonicated five times for 2 min. […] The mixture was added to PS-coated plates (after standard blocking), incubated for 1 hour, washed and the secondary antibody added. After 1 hour, the plates were washed and developed for 5 minutes using OPD.

tumors = assay: 3G4 in syngeneic and xenogeneic tumor models (overall); format: in vivo; settings: 100 μg i.p. 3 times a week
[4] = system: drug-resistant breast tumors; assay: 3G4 and cisplatin against drug-resistant breast tumors; format: in vivo, mouse; settings: treated after day 20
Description: Mice were inoculated with drug-resistant breast tumors and treated after day 20.

[5] = Anti-PS ELISA in OVA or sera of different species; format: binding
Procedure: The assay was performed as follows (see also, Ran et al., 2005, specifically incorporated herein by reference). PS-coated Immunlon 1B microtiter plates were blocked overnight in 1% OVA (w/v). […] Dilutions were performed in 1% OVA or 10% non-heat inactivated sera from cow, human, rat or mouse. […] All ELISA studies were performed at least three times.

hβ2GPI domains = assay: ELISA on recombinant hβ2GPI domain constructs; format: binding, human; settings: constructs I-V, II-V, III-V, IV-V
Procedure: The assay was performed as described above with the following modifications. hβ2GPI, nicked hβ2GPI, or recombinant hβ2GPI peptides were coated on 96-well Immunlon 2HB microtiter plates overnight at a concentration of 10 μg/ml. Plates were then blocked in 1% OVA for 1 hr. at room temperature. […] Plates were incubated for 1 hr. at 37° C. and antibody binding was detected. All ELISA studies were performed at least three times.
β2GPI has five domains, of which the fifth domain is responsible for binding to anionic phospholipids. […] These domain constructs were made by serial truncations from the N-terminus, and so lack each of the N-terminal domains in turn, as follows: recombinant full-length hβ2GPI contains domains I-V; hβ2GPI from which domain I has been deleted contains domains II-V; hβ2GPI from which domains I and II have been deleted contains domains III-V; hβ2GPI from which domains I, II and III have been deleted contains domains IV-V; and hββ2GPI from which domains I, II, III and IV have been deleted contains domain V only.

RSV long strain = assay: RSV plaque assay after antibody treatment; settings: MOI of 1

With “Annexin V: High affinity PS binding ligand; natural ligand binding anionic phospholipids and PE” the “binding to heparin, heparan sulfate or double or single stranded DNA” value [1] was “did not bind detectably”, the “order of strength of binding to phospholipids in ELISA” value [1] was “PI>PS=PE=PA=CL>PG” and the “effect of EDTA on binding to anionic phospholipids” value ([1]; 5 mM EDTA) was “abolished”. The EC50 ([2]; CL) was 0.13 nM, the EC50 ([2]; PA) was 0.1 nM and the EC50 ([2]; PC) was greater than 8 nM. It also gave an EC50 ([2]; PE) of 0.1 nM, an EC50 ([2]; PG) of 0.25 nM and an EC50 ([2]; PI) of 0.05 nM. For the same molecule, the EC50 ([2]; PS) was 0.1 nM and the EC50 ([2]; SM) was greater than 8 nM.

B1: 3G4: Mouse IgG3 kappa monoclonal antibody to PS and anionic phospholipids; binding mediated by β2-glycoprotein I (antibody, listed as Mus musculus)
VH: MGWTWIFILILSVTTGVHSEVQLQQSGPELEKPGASVKLSCKASGYSFTGYNMNWVKQSHGKSLEWIGHIDPYYGDTSYNQKFRGKATLTVDKSSSTAYMQLKSLTSEDSAVYYCVKGGYYGHWYFDVWGAGTTVTVSSATTTAPSVYPLVP
VL: MDMRAPAQILGFLLLLFPGTRCDIQMTQSPSSLSASLGERVSLTCRASQDIGSSLNWLQQGPDGTIKRLIYATSSLDSGVPKRFSGSRSGSDYSLTISSLESEDFVDYYCLQYVSSPPTFGAGTKLELKRADAAPTVFIFGRIP
For B1, the “binding to neutral phospholipids (PE, PC and SM) in ELISA” value [3] was “does not bind”, the “binding to anionic phospholipid-coated plates” value ([3]; 1 mg/ml human β2-glycoprotein I, no serum) was “Full binding was restored” and the “effect of EDTA on binding” value ([3]; 5 mM EDTA) was “unaffected”. The “reduction of binding to anionic phospholipid-coated plates” value ([3]; absence of serum) was 90%, the “competition by phospholipid liposomes” value ([3]; liposomes of single phospholipids) was “blocked by liposomes prepared from PS, PA, PI and CL; also recorded: blocked by liposomes prepared from anionic phospholipids” and the “toxicity in tumor-bearing mice” value (tumors) was “No toxicity was observed”. The anti-tumor response [4] was “tumor growth was slowed”, the “binding to PS” value ([5]; 10% mouse serum) was “did not bind PS” and the “binding to PS” value ([5]; 10% rat and human serum) was “bound PS”. For the same molecule, the “binding to PS-coated microtiter plates” value ([5]; dilutions in 1% OVA, listed as 3G4 purified from SCM) was “binds PS weakly”, the “binding to PS-coated microtiter plates” value ([5]; dilutions in 1% OVA, listed as 3G4 purified from SFM) was “no longer binds PS” and the “binding to PS-coated microtiter plates” value ([5]; dilutions in 10% FBS) was “binds to PS-coated microtiter plates”. The “binding to PS” value ([5]; hamster, ferret, guinea pig, rabbit and monkey serum) was “bound PS”, the β2GPI domain recognized (hβ2GPI domains) was “binds to β2GPI at domain II” and the “decrease in viral titer” value (RSV long strain) was 2 log10.
